For two substances, percent as larger aggregations, percent as tetramers and stoichiometry N results are on record in paper PMC3184955.

Test in all cases: AUC; sedimentation velocity, 40,000 rpm, 25°C, 2 mg/ml, 10 mM Tris, ~pH 7.0; c(s) model (SEDFIT)
Experiment [1] concerns the target Amel-C (amelogenin C-terminal fragment, AA 86-180) (mouse).
Experiment [2] concerns the target full-length recombinant mouse amelogenin (M180) (mouse).
Experiment [3] shares this target. This is another data set of the same source.

Where “and” joins values, the source holds several entries; their conditions need not be identical. Equal values may be shown once. Read-outs that look alike come from different tables or passages of the source.

A word on the stoichiometry N: it is a count of units in the complex or per binding partner.

Consider “Amel-C (amelogenin C-terminal fragment, AA 86-180) (domain or fragment)”, for which, in experiment [1], the percent as larger aggregations is 2%; the percent as tetramers came out at 7.5%; the stoichiometry N is 4 and 6.
On to “full-length recombinant mouse amelogenin (M180) (natural protein)”, for which the values for the stoichiometry N in experiment [2] and in experiment [3] were 40 and 50, respectively.
